Results published in publication PMC5716544.

Target: functional streptavidin subunit with N-terminal cysteine and His-tag (Streptomyces avidinii) (UniProt P22629)
Test: refolding of mixed subunits, purification via the His-tag of one subunit, SDS-PAGE of heated and unheated samples; solubilized inclusion bodies mixed at a 1:10 ratio before refolding; tetramer purified via the His-tag of the cysteine-bearing subunit; gel of samples heated 5 min to 95°C (monomers) and of unheated samples (tetramers), room temperature

functional SA subunit devoid of cysteine and His-tag (domain or fragment)
stoichiometry N: 3
